Results published in the DeepSol protein solubility set.

Test: soluble on expression in E. coli; label from the status in PepcDB or PDB records

| Sequence | soluble on expression in E. coli |
| --- | --- |
| MGIIDKIKAIEEEMARTQKNKATEHHLGLLKGKLARYRQQLLADEAGSGGGGGSGFEVAKSGDARVVLIGYPSVGKSSLLGKITTTKSEIAHYAFTTLTSVPGVLKYQGAEIQIVDLPGIIYGASQGKGRGRQVVATARTADLVLMVLDATKSEHQRASLEKELENVGIRLNKEKPNIYYKKKETGGVKVTFTSPPKTNLTEQAIKMILRDYRIHNAEVLVRDDQCTIDDFIDVINEQHRNYVKCLYVYNKIDAVSLEEVDKLAREPNTVVMSCEMDLGLQDVVEEIWYQLNLSRVYTKKRGVRPVFDDPLVVRNNSTIGDLCHGIHRDFKDKFKYALVWGSSAKHSPQKCGLNHRIDDEDVVSLFAK | soluble |
| MERGEIWLVSLDPTAGHEQQGTRPVLIVTPAAFNRVTRLPVVVPVTSGGNFARTAGFAVSLDGVGIRTTGVVRCDQPRTIDMKARGGKRLERVPETIMNEVLGRLSTILT | soluble |
| MESKVERYVENYVVTKNTMALLPVILSEKKIVTRVVEMNDSFFVFQKPLDIIERSCRKHGSSFLGRKEGTKELTHITHKAPIAISPADQLYFFPTYSYSRKECAWLSHFYIESNKELKDGNLIIRFINGFAVKLEISKTSFENQQNRTAKLRTEYEDRRKKQGNPCFKEVDKKEESTLRPAYESVYFVKEGEV | not soluble |
| MTRSRLKIDRHGKEEDAMDLIDTHQHLILRGKLGYAWTRGEPSLAGSFTRADYAALVEGSGVIGTIFMETGVDDGDYRAEARLVAGMVGEGTLPMFGQIASCRPETDQGFDAWLEECRHLKVVGFRRILQVMPDDTSRAENYRRNVRKIGKAGWPVDLCFHSRQLAIAAELVRACPDVRFMLDHCGTPDIAGNDFPAWSERMADLASLPNLFVKLSGVTAYCAPGQVTLESVRPYVETVLKLFGPARMVWGGDWPVVDLGSGLPEWIAMTREFLSTLSPDEQASIGHGNARRFYLATLEHHHHHH | not soluble |
| MSYQPTSLTVASYNLRNANGSDSARGDGWGQRYPVIAQMVQYHDFDIFGTQECFLHQLKDMKEALPGYDYIGVGRDDGKDKGEHSAIFYRTDKFDIVEKGDFWLSETPDVPSKGWDAVLPRICSWGHFKCKDTGFEFLFFNLHMDHIGKKARVESAFLVQEKMKELGRGKNLPAILTGDFNVDQTHQSYDAFVSKGVLCDSYEKCDYRYALNGTFNNFDPNSFTESRIDHIFVSPSFHVKRYGVLTDTYRSVRENSKKEDVRDCPEEITIKAYEARTPSDHFPVKVELVFDLEHHHHHH | soluble |
| MKRQWALEDFEIGRPLGKGKFGNVYLAREKQSKFILALKVLFKAQLEKAGVEHQLRREVEIQSHLRHPNILRLYGYFHDATRVYLILEYAPLGTVYRELQKLSKFDEQRTATYITELANALSYCHSKRVIHRDIKPENLLLGSAGELKIADFGWSVHAPSSRRTDLCGTLDYLPPEMIEGRMHDEKVDLWSLGVLCYEFLVGKPPFEANTYQETYKRISRVEFTFPDFVTEGARDLISRLLKHNPSQRPMLREVLEHPWITANSSKPSNCQNKESAAAALEHHHHHH | soluble |
| MSSKEIICQGEELFRLIPQRPPMVMIDRFYGIEENTSWSGLTVTTDNLFCRDGVLQETGIIEHIAQSAAARVGYIYMLRKEPVPLGFIGSVEKMKLFRLPSAGAELYTGITIVQEVFDITLITAEVKENDELLAECRMKIYLKKELEHHHHHH | soluble |
| MDMDKRSSDLEAALRIVLQQTLNIVLQAQEKLPEANVVPSTPPTSPSTDIGEQMASFWNIPSPNPPATSATSSTSPEEEIPCICFNCWGNVAAAANSKTWKSPNQADFRSAAAPLTEEKSHA | not soluble |
| MSLKILLMLLCVSVLGCSKNSVESEKPVDVLLIGGGIMSATLGTYLNELEPGWTIEMVERLDKVAEESSNGWNNAGTGHSAFCELNYTSEAADGSMDISKAVAINENFEISKQFWAYQVDRKVLNDPKSFINNVPHMSFVWGDDNVAFLKKRHAALQHSSLFRGMEYSEDPEQIKQWVPLVMEGREPGQKIAATRMSIGTDVNFGEITRQLVGSLSAKDTFKLRLQHEVRDLKRNDDNTWTVTMADLANGDKETSVKARFVFIGAGGGALKLLQMSGIPEAEGYAGFPVGGSFLATTNPDVVKRHLAKVYGKASVGSPPMSVPHLDTRMIDGKPVLLFGPFATFSTKFLKNGSLWDLPGSVTSGNIGPMFNAGIDNFDLSQYLIGQLMLSQDDRMASLREYFPEARDEDWKLVQAGQRVQIIKKDAEKGGVLQFGTEVVTAADGSVAALLGASPGASTAAPIMLSVLEKAFKDKVATPEWQARLKEIVPSYGRKLNNDIELTNSTRAWSSERLQLIHVPVQEGGSHHHHHH | soluble |
| MSLGIENDRKLVVNCLPLTEAERAQFTRAAKGMPQEFVGDPAQRGSMNWTAEIPDELKAYATAVIGNITPETCAQCPRLEWLQTWSAGVDKYQHPGILQPGSMLTNATGAYGQSVSEHMFAMMWAIMKNLHIYAVGNPNAAWQDAGRVISPDGKTALIIGTGDIGSHFARLCKSVGMSTIGIRRNPTVEAPGIDHMVGFESLDDVLQYADVIAMCVPSTPSTHHLLNAERIAKLKTDATVINAGRGDAIDTQALADALANGMIRGAGLDVTEPEPLPAASPLWSEPKCLITPHVAGGNHLESTERRIIAIALGNVRCYANGQSLDNRMPLKGEGHHHHHH | soluble |
| MSLGDGNVEVAIIAYPYMSNFNEFYALVKSNARVSFVRKPKETAKADLVILPGSRNTLESLKWLVENGFVEQLRQRSMNILGICGGFQILGKKIVDPYGIEAGYPTEYEGLGIFDINVHYSKDKVVSMTTGISEYGEMNGYEIRRGVIKYMGEKPLLKITLRNGEKVSVEDGAKKDNIIGISVHGTLFSDGMKKLLKEFNINIHSQSMEEGHHHHHH | soluble |
| MPHNSVKHSTRLDVIPLKTAEKHPNSQRRFHVMSKPGGSKCNLDCQYCFYLHKDELLHQPKQPMMDDTTLEAFIKSYIESQDGHEIVFSWQGGEPTLLGLDYFKKIVQLQNKYRPSGVKIENDLQTNGILLNDEWCQFLKDNGFLVGLSIDGPKELHDKYRVTRSGKPTFNLVMAAAKRLQEHHVPFNSLVVVNRHNAKHPLDVYRFLTKELGATYIQFTPCVEAKDFTTTAPQFWNETMIPNKGSELAKPGHPMSIVTDWSVDPDDWGNFLNTVFVEWVNNDLGRVLVNLFETAVAQVMGKESQLCVTAEFCGKGLAMEHNGDVFSCDHYVYPEYKLGNIHDRGLNEFAFSIRQHGFGMAKRDSLPSYCKSCPHLKLCWGECPKNRLINTPNGEPGLNYLCSGIRAFFDESLPMLTGLSVLLQRQENTQK | not soluble |
| VSTLSKEQVKEIIKGNNFQSVADVSAYLRDIFKDIIQELLEAELEAKLGYAKDDVENKNTDNSRNGYSPKTIKSEFREVEIQVPRDRKGEFKPQIIPKYQRNVSGIEEKVIALYARGMSTRDISEQIEELYGFSLSPEMVSKITDRIAPEIKEWQQRPLEPIYTFVFMDEIH | soluble |
| MTDSDNPRRVLLKLSGEAFGGGKVGIDTQVIRRIAEEIVPAVQQGVQVAIVVGGGNFFRGAELQQAGIDRSRGDYMGMLGTVMNCLALQDFLEQEGQATRVQTAITMGQVAEPYIPLKAIRHLEKGRVVIFGAGAGMPYFSTDTVSIQRSLEIHCDEVLMGKNGVDGVYTADPRKDENAKRFETLSYNRALVDNLAVMDASALSMARDNKKRIRVFGLEEPGNVTRALVGDEIGTLVSTAESRVAELEHHHHHH | soluble |
| MPEPHPAPQPYTVAALYQFRALPDPAALRAELLALGERLELCGTLIVADEGINGTVAGSAAAIAELHAFLLASGFDRLEYKESQASEKPFKRYKVRLKKEIVTLGVPVAPREQVGTYLDPQAWNDLLADPEVIVVDTRNRYEVKAGTFQGAVDPEIDSFREFPAWVDEHLAGAEGKKIAMFCTGGIRCEKSTSLLLQKGFQDVYHLKGGILKYLEDVPQAQSRWDGECFVFDGRVTVGHGLQEGDAVMCHSCGWPLTAQERAHPQFEEGVSCEHCFDETTDVQKAAFRERQRMYEAGHLTLEHHHHHH | not soluble |
| MTADDSPSDRWGPRCTTRGPGSDPRFDVPVRGVDVGPETRCAHYHGPRDVIAIRFACCDVFYPCHRCHEETATHPPERWPHDQFNASAVLCGRCRTVLTIEQYLDADHTCPACGAAFNPNCARHHDRYFCVGLEHHHHHH | not soluble |
| MSKELTAKKRAALNRLKTVRGHLDGIVRMLESDAYCVDVMKQISAVQSSLERANRVMLHNHLETCFSTAVLDGHGQAAIEELIDAVKFTPALTGPHARLGGAAVGESATEEPMPDASNM | soluble |
| MAHHHHHHMCAALSPAHFQLRVKILSEAAKHVPETGFTNAALAASLKSIGVEDITDRTLSQIFNRGFPIALVEHIVKSTNLHVQRELESVFSKDAIIKSIDSNVDAFVQNRLLLPTEKNVVEKAILSKLELLIPLAEHWPSAVALEYLPANLPYTVMNLAEFVDTTVYYMERATTLGELLDPARRILRSKAMASRIRSGEVDSNGASPTSEFLKSFLKGISLSSGPYAGPSALNLGWYCKRAQVAIVYGAVTTSLLGDVSQNAADTRSLTKAAVETVF | not soluble |
| MGSDKIHHHHHHMIVLFVDFDYFYAQVEEVLNPSLKGKPVVVCVFSGRFEDSGAVATANYEARKFGVKAGIPIVEAKKILPNAVYLPMRKEVYQQVSSRIMNLLREYSEKIEIASIDEAYLDISDKVRDYREAYNLGLEIKNKILEKEKITVTVGISKNKVFAKIAADMAKPNGIKVIDDEEVKRLIRELDIADVPGIGNITAEKLKKLGINKLVDTLSIEFDKLKGMIGEAKAKYLISLARDEYNEPIRTRVRKSIGRIVTMKRNSRNLEEIKPYLFRAIEESYYKLDKRIPKAIHVVAVTEDLDIVSRGRTFPHGISKETAYSESVKLLQKILEEDERKIRRIGVRFSKFIEAIGLDKFFDT | not soluble |
| MGSSHHHHHHSSGLVPRGSHMTPKDDEFYQQWQLKYPKLILREASSVSEELHKEVQEAFLTLHKHGCLFRDLVRIQGKDLLTPVSRILIGNPGCTYKYLNTRLFTVPWPVKGSNIKHTEAEIAAACETFLKLNDYLQIETIQALEELAAKEKANEDAVPLCMSADFPRVGMGSSYNGQDEVDIKSRAAYNVTLLNFMDPQKMPYLKEEPYFGMGKMAVSWHHDENLVDRSAVAVYSYSCEGPEEESEDDSHLEGRDPDIWHVGFKISWDIETPGLAIPLHQGDCYFMLDDLNATHQHCVLAGSQPRFSSTHRVAECSTGTLDYILQRCQLALQNVCDDVDNDDVSLKSFEPAVLKQGEEIHNEVEFEWLRQFWFQGNRYRKCTDWWCQPMAQLEALWKKMEGVTNAVLHEVKREGLPVEQRNEILTAILASLTARQNLRREWHARCQSRIARTLPADQKPECRPYWEKDDASMPLPFDLTDIVSELRGQLLEAKP | soluble |
| DHLHVIGDIYDRGPAPDKIMDRLMSYHSLDIQLGNHDMIWLAAYSGSLACLANVVRICARYGNLDLLEERYAIDLTALKKFSLETYKENPAFAPKKNPYRALTEAEKQVAMRVQQAIAIIQEKLEGQIIGRRPDFNLAHRLRLDKIQGETITFDECRYTLINSCFQTVSEEQPYQLTREEKQIIDDLLTQFQSSPRLTKHMRFLMEKASLYLVYNQNLLIHGCLPLNADGTFQAYTFKGHSYSGKALVDFFQEMLEEAYAQPASTDDYATDCLWYLWCGEGSSLFGKRAMKTFERYFLAEKETHYEEKNPYYSLRDTVEVCERILDEFEVTGENRHIINGHTPVKRTKGESPIKANGTLLVIDGGFSKSYQTITGIAGYTLLYNS | not soluble |
| MYPVDLHMHTVASTHAYSTLSDYIAQAKQKGIKLFAITDHGPDMEDAPHHWHFINMRIWPRVVDGVGILRGIEANIKNVDGEIDCSGKMFDSLDLIIAGFHEPVFAPHDKATNTQAMIATIASGNVHIISHPGNPKYEIDVKAVAEAAAKHQVALEINNSSFLHSRKGSEDNCREVAAAVRDAGGWVALGSDSHTAFTMGEFEECLKILDAVDFPPERILNVSPRRLLNFLESRGMAPIAEFADL | soluble |
